Target: GST-PpROP4CA (G15V)
Assay: pull-down (MBP pull-down, anti-GST western blot, band quantification)
Conditions: three replicates; parent: est. 0.17; read off a plot

other: Protein ratio: 0.17
Substance: MBP-PpREN (wild type) R204L

Source: publication PMC10625565
